Laboratory results: article PMC8477557 (2021)

Target: αCD123
Assay: SPR

Kd: 1.2 nM
B1: CD123 extracellular domain (domain or fragment)
chain: TKEDPNPPITNLRMKAKAQQLTWDLNRNVTDIECVKDADYSMPAVNNSYCQFGAISLCEVTNYTVRVANPPFSTWILFPENSGKPWAGAENLTCWIHDVDFLSCSWAVGPGAPADVQYDLYLNVANRRQQYECLHYKTDAQGTRIGCRFDDISRLSSGSQSSHILVRGRSAAFGIPCTDKFVVFSQIEILTPPNMTAKCNKTHSFMHWKMRSHFNRKFRYELQIQKRMQPVITEQVRDRTSFQLLNPGTYTVQIRARERVYEFLSAWSTPQRFECDQEEGANTRAWR
